Results: patent US7256259 (WISCONSIN ALUMNI RESEARCH FOUNDATION, dated 2007)
Where no end group is shown, it is not given here. [ ]: non-standard residue; d: D form. The star is where a group is joined. Lys(N3) = [N-]=[N+]=NCCCC[C@H](N)C(=O)O; N3 = azido group, [N-]=[N+]=N*; PEG = not defined here

T1: S-protein (UniProt P61823 47-150)
T1 construct: also called purified S-protein; commercial S-protein (Sigma Chemical)
T1 sequence (looked up): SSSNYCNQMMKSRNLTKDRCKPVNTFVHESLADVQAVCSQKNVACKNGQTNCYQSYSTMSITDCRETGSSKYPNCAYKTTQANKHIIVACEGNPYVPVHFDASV


Molecular target: T1, S-protein
Assay: S-protein incubated on a glass slide with immobilized azido-S15; detected by activity assay and immunostaining
Experimental: An amine-derivatized glass slide was treated with an excess of PEG having succinimidyl ester termini followed by diphenylphosphinomethanethiol resulting in a surface-bound phosphinothioester, as illustrated in Scheme 2. It is believed that the PEG layer (Mr) 3,400) prevented the non-specific attachment of protein to the glass surface. Serial dilutions of (N_3)Lys1 S15 and (N_3)Lys1 S15 were spotted on this phosphinothioester-derivatized slide. The peptide concentrations were 5.64 µM-56.4 pM for (N_3)Lys1 S15 and 4.38 µM-43.8 pM for (N_3)Lys1 S15. Afterwards, S-protein was spotted on the slide, which was washed with buffer. If S15 was successfully immobilized to the slide through the Staudinger ligation, the S-protein would bind to the immobilized S15 resulting in immobilized RNase S'.
Two types of assays were used to detect the presence of immobilized RNase S'. First, the ribonucleolytic activity of each spot was determined with a fluorogenic substrate. […]
RNase S' attached to the plate was visualized by immunostaining. […] RNase S' was detected by using a Fluorinate SI fluorescence scanner (Molecular Dynamics). (See FIG. 1A) The quantity of immobilized protein was determined with IMAGEQUANT densitometry software (Molecular Dynamics) and a standard curve generated by spotting various concentrations of Alexa Fluor® 488-conjugated secondary antibody.

binding result	Binder
binds	{N3-PEG}-KETAAAKFERQHMDS (reading uncertain, Synthetic S15 (first 15 residues of S-peptide) carrying N3-PEG at its N-terminus; In the assay it was immobilized on a phosphinothioester-derivatized glass slide; also called azido-S15; azido-peptide (main-chain azide)) [N3-PEG-S15]
binds	[Lys(N3)]ETAAAKFERQHMDS (also called azido-S15) [(N3)Lys1 S15]
